Test system: peptide library, one residue held at a place counted from the Y acceptor
Experiment: relative phosphorylation of the sub-library (ratio to the mean residue at this position); higher = residue favoured
Procedure, shortened: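 Purified recombinant kinases were incubated for 90 min in 384-well plates with biotinylated Tyr-centred peptide library mixtures, each fixing one residue at one position from −5 to +5, plus 50 μM ATP with γ-32P-ATP. Peptides were captured on streptavidin membranes, rinsed and quantified by phosphorimaging and ImageQuant. Intensities were normalized per position by the sum of the 18 (or 16, Ser/Thr-free library) randomized residues and multiplied by that number. Values give phosphorylation relative to the mean randomized residue.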

Sequence of EPHA2, construct: aa561-end, human (P29317 561-976, looked up): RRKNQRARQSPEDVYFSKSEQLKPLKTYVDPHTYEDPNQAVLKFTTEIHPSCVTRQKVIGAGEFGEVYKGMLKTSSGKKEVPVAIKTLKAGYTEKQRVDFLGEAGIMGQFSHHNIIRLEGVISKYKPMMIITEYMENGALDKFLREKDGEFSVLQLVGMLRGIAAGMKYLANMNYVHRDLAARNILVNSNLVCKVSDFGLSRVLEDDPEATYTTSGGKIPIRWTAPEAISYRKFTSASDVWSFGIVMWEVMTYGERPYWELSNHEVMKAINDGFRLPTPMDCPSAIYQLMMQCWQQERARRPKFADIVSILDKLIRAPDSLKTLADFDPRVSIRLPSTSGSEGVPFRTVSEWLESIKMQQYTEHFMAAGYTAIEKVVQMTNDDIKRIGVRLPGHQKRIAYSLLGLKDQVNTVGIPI
Sequence of EPHA3, construct: aa571-end, human (P29320 571-983, looked up): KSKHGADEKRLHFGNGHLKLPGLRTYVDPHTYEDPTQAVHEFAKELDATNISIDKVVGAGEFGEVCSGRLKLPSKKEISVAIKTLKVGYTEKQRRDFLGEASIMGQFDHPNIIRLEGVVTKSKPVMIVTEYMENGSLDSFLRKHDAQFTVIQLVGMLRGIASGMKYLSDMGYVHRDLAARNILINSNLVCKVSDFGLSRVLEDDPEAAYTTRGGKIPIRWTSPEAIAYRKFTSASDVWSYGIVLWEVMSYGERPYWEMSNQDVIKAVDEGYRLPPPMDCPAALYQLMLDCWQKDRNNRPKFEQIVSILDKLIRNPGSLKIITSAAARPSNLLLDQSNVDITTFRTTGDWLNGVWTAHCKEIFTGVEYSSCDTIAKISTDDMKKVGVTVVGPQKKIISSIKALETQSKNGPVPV
Sequence of EPHA5, construct: aa662-948, human (P54756 662-948, looked up): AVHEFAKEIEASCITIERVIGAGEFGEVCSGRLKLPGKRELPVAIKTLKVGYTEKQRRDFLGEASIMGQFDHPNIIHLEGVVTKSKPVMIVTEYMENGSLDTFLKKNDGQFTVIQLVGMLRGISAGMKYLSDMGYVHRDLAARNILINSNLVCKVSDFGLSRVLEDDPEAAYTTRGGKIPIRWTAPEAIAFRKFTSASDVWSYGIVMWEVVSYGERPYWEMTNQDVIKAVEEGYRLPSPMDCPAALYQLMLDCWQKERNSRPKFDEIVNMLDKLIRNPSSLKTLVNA
Sequence of EPHA4, construct: aa610-887, human (P54764 610-887, looked up): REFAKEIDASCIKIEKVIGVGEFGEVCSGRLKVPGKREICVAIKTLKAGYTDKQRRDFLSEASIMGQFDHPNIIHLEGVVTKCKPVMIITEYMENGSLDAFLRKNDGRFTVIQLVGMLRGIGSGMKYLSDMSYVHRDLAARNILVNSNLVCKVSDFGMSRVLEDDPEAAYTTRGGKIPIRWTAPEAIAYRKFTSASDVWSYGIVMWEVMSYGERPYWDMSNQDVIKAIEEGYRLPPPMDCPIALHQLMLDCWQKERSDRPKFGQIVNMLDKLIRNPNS

EPHA2, construct: aa561-end, human (from UniProt P29317)
relative phosphorylation
Details	at +1	at +2	at +3	at +4	at +5	at -1	at -2	at -3	at -4	at -5
A fixed	1.31	0.627	0.592	0.785	0.992	0.392	1.11	0.791	1.04	0.971
D fixed	0.849	1.83	0.379	0.913	1.26	3.48	1.25	1.54	1.25	1.23
E fixed	2.74	2.13	0.34	1.28	1.22	2.02	1.74	1.76	1.41	1.03
F fixed	0.725	1.35	1.4	1.13	1.1	0.943	0.617	1.32	1.09	1.12
G fixed	0.517	0.298	0.508	1.15	1.15	0.198	1.22	0.847	1.26	1.15
H fixed	1.65	0.815	0.725	1.29	0.993	0.836	0.817	1.06	0.843	0.916
I fixed	1.84	1.08	3.27	0.777	0.778	1.92	0.914	0.914	0.999	1.04
K fixed	0.165	0.339	0.183	0.567	0.616	0.17	0.657	0.502	0.737	0.873
L fixed	0.892	0.944	1.84	0.662	0.877	1.83	0.82	0.873	1.05	1.05
M fixed	1.62	0.988	1.64	0.989	0.87	0.733	0.654	0.809	0.986	0.978
N fixed	0.322	1.07	0.395	0.718	0.8	1.83	1.3	1.07	0.802	1.06
P fixed	0.15	0.54	1.33	1.52	1.67	0.257	1.24	1.08	1.07	0.972
Q fixed	0.852	0.723	0.628	0.844	0.773	0.351	1.01	0.774	1.05	0.986
R fixed	0.18	0.481	0.262	0.692	0.613	0.219	0.832	0.607	0.871	0.92
S fixed	0.61	0.691	0.426	1.02	1.02	0.366	1.39	0.923	0.815	0.835
T fixed	0.783	0.816	0.621	0.886	1.22	0.931	1	0.903	0.79	0.827
V fixed	1.81	1.05	2.07	0.759	0.827	0.974	0.838	0.888	0.802	0.9
W fixed	0.979	2.23	1.4	2.02	1.21	0.554	0.61	1.34	1.12	1.15
pThr fixed	2.09	2.85	0.454	1.09	0.852	3.53	0.956	0.833	1.22	1.26
pTyr fixed	3.93	7.03	1.08	1.44	1.31	4.75	1.15	1.43	1.54	1.4

EPHA3, construct: aa571-end, human (from UniProt P29320)
relative phosphorylation
Details	at +1	at +2	at +3	at +4	at +5	at -1	at -2	at -3	at -4	at -5
A fixed	1.63	0.63	0.711	0.794	1.05	0.536	1.11	0.827	1.03	0.924
D fixed	1.1	1.73	0.574	1.03	1.04	2.68	1.16	1.07	1.06	0.949
E fixed	1.89	1.71	0.544	1.06	0.941	1.19	1.04	1.17	1.05	0.848
F fixed	0.91	1.44	1.4	1.16	1.42	0.997	0.863	1.32	1.3	1.15
G fixed	0.902	0.424	0.526	1.14	0.981	0.389	1.04	0.853	1.01	1.02
H fixed	0.53	0.717	0.69	0.998	0.756	0.534	0.804	0.959	0.859	0.996
I fixed	1.18	1.02	2.34	0.801	0.925	1.83	0.939	1.11	0.974	0.999
K fixed	0.407	0.47	0.403	0.685	0.653	0.382	0.899	0.674	0.918	1.01
L fixed	0.982	0.908	1.62	0.754	1.19	1.75	1.13	0.995	1.34	1.11
M fixed	1.17	0.915	0.989	0.951	0.885	0.827	0.747	0.976	0.837	0.891
N fixed	0.556	1.05	0.514	0.809	0.774	2.18	0.942	1.06	0.817	1.03
P fixed	0.353	0.567	1.42	1.25	1.52	0.44	1.15	1.02	1.06	1.09
Q fixed	1.28	0.789	0.775	0.997	0.8	0.567	1.25	0.894	1.09	1.02
R fixed	0.473	0.601	0.505	0.809	0.648	0.411	0.842	0.806	0.847	0.982
S fixed	0.811	0.685	0.63	0.877	1.06	0.525	1.28	0.902	0.785	0.836
T fixed	0.694	0.742	0.589	0.866	0.841	0.867	0.805	0.885	0.653	0.774
V fixed	1.59	0.905	1.85	0.779	1.04	1.04	1.04	0.994	0.903	0.836
W fixed	1.54	2.7	1.92	2.23	1.47	0.849	0.966	1.48	1.48	1.53
pThr fixed	1.53	2.12	0.736	1.05	0.946	1.88	1.04	0.915	0.851	0.854
pTyr fixed	1.9	7.49	1.44	1.89	1.07	2.88	1.1	1.22	1.13	1.15

EPHA4, construct: aa610-887, human (from UniProt P54764)
relative phosphorylation
Details	at +1	at +2	at +3	at +4	at +5	at -1	at -2	at -3	at -4	at -5
A fixed	1.32	0.737	0.831	0.822	0.978	0.712	1.1	0.763	1.03	1.01
D fixed	1.31	2.05	0.748	1.15	1.18	2.37	1.27	1.2	1.28	1.11
E fixed	3.45	2.28	0.728	1.52	1.29	1.52	1.41	1.34	1.23	1.02
F fixed	0.73	1.14	1.22	0.976	1.25	0.885	0.778	1.24	1.16	1.08
G fixed	0.817	0.564	0.695	0.991	1.1	0.533	0.929	0.804	1.11	1.02
H fixed	0.631	0.779	0.833	1.07	0.933	0.672	0.865	0.873	0.867	0.959
I fixed	0.966	0.952	2.01	0.831	0.904	1.72	0.931	1.12	0.962	0.981
K fixed	0.473	0.527	0.525	0.679	0.67	0.513	0.825	0.594	0.836	0.965
L fixed	0.782	0.829	1.35	0.859	1.01	1.45	1.06	0.976	1.01	1.03
M fixed	1.06	0.86	1.13	0.923	0.938	0.802	0.777	0.851	0.902	1.01
N fixed	0.6	1.09	0.694	0.883	0.901	1.57	1.05	0.901	0.896	1
P fixed	0.509	0.757	1.5	1.25	1.44	0.641	1.42	0.94	1.12	1.05
Q fixed	1.02	0.797	0.708	0.909	0.82	0.638	1.07	0.753	1.04	0.95
R fixed	0.505	0.624	0.588	0.764	0.727	0.555	0.849	0.649	0.834	0.98
S fixed	0.757	0.756	0.685	0.897	0.945	0.689	1.1	0.851	0.919	0.921
T fixed	0.74	0.785	0.733	0.881	0.922	0.935	0.834	1.87	0.815	0.854
V fixed	1.38	0.997	1.59	0.84	0.879	1.08	0.95	0.959	0.861	0.918
W fixed	0.948	1.48	1.45	1.76	1.12	0.718	0.79	1.31	1.13	1.14
pThr fixed	1.73	2.97	0.917	1.23	1.13	2.06	1.1	0.813	0.997	0.912
pTyr fixed	1.87	8.24	1.28	1.75	1.33	2.22	1.09	1.01	1.09	1.07

EPHA5, construct: aa662-948, human (from UniProt P54756)
relative phosphorylation
Details	at +1	at +2	at +3	at +4	at +5	at -1	at -2	at -3	at -4	at -5
A fixed	1.5	0.555	0.644	0.75	1	0.44	1.06	0.741	1.03	0.879
D fixed	1.25	1.88	0.493	1.3	1.25	2.92	1.34	1.4	1.22	1.11
E fixed	3.4	2.46	0.463	1.35	1.27	1.59	1.56	1.74	1.5	1.07
F fixed	0.713	1.41	1.41	1.07	1.01	1.03	0.671	1.35	1.11	1.06
G fixed	0.825	0.275	0.426	1.21	1.2	0.215	1.14	0.85	1.18	1.14
H fixed	0.529	0.834	0.862	1.2	0.903	0.651	0.89	1.03	1.02	1.08
I fixed	1.05	0.877	2.62	0.716	0.778	1.83	0.725	0.845	0.83	0.973
K fixed	0.174	0.329	0.218	0.638	0.64	0.203	0.779	0.604	0.778	0.921
L fixed	0.847	0.869	1.85	0.707	0.916	1.74	0.789	0.877	1	0.983
M fixed	1.53	0.976	1.37	0.965	0.97	0.815	0.604	0.935	0.891	1.02
N fixed	0.48	1.18	0.477	0.805	0.906	2.59	1.28	1.12	0.966	1.11
P fixed	0.144	0.481	1.39	1.19	1.53	0.333	1.21	0.953	1.16	0.983
Q fixed	1.31	0.857	0.867	1.01	0.961	0.465	1.23	0.966	1.2	1.18
R fixed	0.224	0.47	0.35	0.832	0.763	0.232	0.883	0.751	0.885	0.968
S fixed	0.756	0.622	0.514	0.925	1.04	0.437	1.39	0.868	0.749	0.822
T fixed	0.62	0.772	0.563	0.937	0.859	0.924	0.885	0.893	0.64	0.824
V fixed	1.5	0.912	1.95	0.729	0.802	0.932	0.829	0.806	0.776	0.757
W fixed	1.15	2.25	1.52	1.68	1.2	0.662	0.729	1.29	1.05	1.12
pThr fixed	1.77	2.65	0.559	1.37	1.06	1.87	1.13	0.996	0.952	0.917
pTyr fixed	2.61	6.1	1.08	1.72	1.61	2.82	1.52	1.25	1.29	1.15

Source: the supplement of paper PMC11136658
